B1: ES43: 497 bp Cyp51-dsRNA, trigger SEQ ID NO 108; gene target Cytochrome P450 (nucleic acid)
DNA: TCTTACCATGAAGCGTTCCATTCCTATGTAACAATAATACAAAATGAAGTAGAGGCATATATAAACAATTGCGTTAGCTTTCAGGGTGAGAGTGGCACAGTAAACATCTCAAAAGTTATGGCGGAAATCACTATATATACTGCTTCACATGCCTTACAAGGAGAAGAGGTCCGTGAGAATTTTGACTCATCTTTTGCCGCTCTTTATCATGATCTTGATATGGGATTTACACCGATCAACTTTACATTTTACTGGGCACCTCTACCTTGGAATCGTGCTCGTGATCATGCCCAAAGAACTGTTGCTAGGACTTATATGAATATAATCCAAGCTCGTAGAGAAGAGAAAAGAAGCGGTGAGAATAAGCATGATATAATGTGGGAGTTGATGCGTTCCACTTATAAAGACGGGACTCCGGTACCTGATCGAGAGATAGCGCATATGATGATAGCCCTTCTGATGGCTGGACAACACTCTTCGTCATCCACGAGCTCATG
B2: GS1875: dsRNA trigger SEQ ID NO 168; gene target Mitochondrial RNA-splicing protein MRS3 (nucleic acid)
chain: AAAGCTCCAGCTGAGCAATGAGTAAGTGGATCGTAAGCCTTTGATGGGTTCAGAAATGTAGATACAGATTCGTATGCGAGAAGTTGAAGTGCTGTAAATGGTACAGTCATGGAAAGAGTAGTTGGATACGAGATATAGAAGGCTGTGATGCCTTCAGTGCGATAGATATAGCGGGCACAATCACTCAGTGATCTATAAATTTTGCGAGAGTTATGCATTTGCATTCTTTGCTTTATTACATCAAATGGGTTCATTAAAGCATCACTTGCAATTGTTGCGCATGCCCCACTTGTAATGCGCATGCCCCACTTGTAACTATGTAGCTTCAGTAAGTGCTCAATATCAAGGATAAATTGGCGATGTAGTCATATATGTCTGATTCCTTAATCAAAATTCTTAATACAGACCTGCTGCAATAGGATGATGAGCTCCTGTTTGATTACCTCCCATGAGATGTTTGACAGCTTCATAGGTTGCAAAATA
B3: GS1879: dsRNA trigger SEQ ID NO 142; gene target Chaperone-dependent E3 ubiquitin protein ligase (nucleic acid)
chain: CTGAATTTCTGAGTTCCGCTATCTTTTTATCTCTTCTTTCCTCAAGTCCGTATTGAAGTTCGTGAGATAATTTACTTCGATTCATCTCTCTTTTACTTTCTTGTGCCTCCCATCCCATTTTTTTACATTTCATCACTAACTCAGTTATTGGCTCTATACTGTTAGCCCCTTTTGTTCCTGCATACATCTCTTCCATACAAAATTTTCGCGCAGTCTTTGCAGATTGAAATGCCTCATCGTAATAATTTAGCGCCAGTTGTGCTTGGGCCAGTTGGAAATATGCTTTCATATTTGATGGGAGGAGACGTAAAGCGCATTGGGCATCTTCAATTACACGATGATGAAGAGATAATTTAAGAAGTACCATTGCACGATTTGTATAAAGTACTGGATTTTGGGGATCACAATTGATCGCTTTTGTGTAAAACATTTCAGCACGCGTATAATCACCAGACTTAAAATATTTATTTC

What was measured:
[1] = tested on: E. necator; experiment: Field trial, natural infestation on Chardonnay grapes, leaf disease incidence (Example 5); format: in vivo, E. necator on Chardonnay grapes; conditions: FIG. 7
Procedure: A field trial was conducted in ACDS Research vineyard (Dundee, New York) with natural disease infestation on grapes. The trial was set up in four rows (180 ft^2) of Chardonnay grapes, with plots consisting of four vines. The trial included 11 treatments (Table 5), each replicated four times. The grower spray program from budbreak through pre-bloom consisted of sulfur, and trial applications were initiated at bloom. Eight to fifteen applications of ES43 (6.25, 25, 50 and 100 g Ai/ha) were compared with Regalia (470 g Ai/ha) and DoubleNickel (10 billion Cfu/ml), Pristine (333 g Ai/ha) Rally 40 WSP (140 g Ai/ha) and Luna Experience (250 g Ai/ha). Disease incidence, total number of leaves infected out of number of leaves present on several branches, Weekly assessments was performed 1 day before ES43 applications. Data was collected one week after the last application for all treatments at the close of the experiment.
Disease incidence was calculated based on number of leaves infected with powdery mildew out of 20 total leaves.

[2] = tested on: E. necator; experiment: Leaf disc assay, wet inoculum (conidial suspension), disease severity by automated phenotyping (Example 1)
[3] = tested on: Cyp51 transcripts; experiment: Gene specific qRT-PCR of ES43 (Cyp51) transcripts in leaf discs (Example 3); format: in vivo, E. necator
Procedure: FIG. 3. Gene specific qRT-PCR analysis of ES43 (Cyp51) transcripts at 6-dpi in leaf discs. Two housekeeping genes (GDP1 and TEF1) were used as endogenous references to examine the expression of Cyp51. Gene expression was normalized to the untreated control. Statistical significance at p<0.01, Mann-Whitney U test.
(§1) qRT-PCR was performed to validate the effect of exogenous dsRNA on the expression of selected targeted genes for which activity of dsRNA had been shown by leaf assay (as described in Example 2). Samples were treated with dsRNA, inoculated after 24 hours and six leaf discs per treatment were collected at six-days post inoculation (dpi) for further analysis.

[4] = tested on: E. necator; experiment: Greenhouse trial, powdery mildew on grapes, AUDPC of disease incidence and severity (Example 4); format: in vivo, E. necator in grapes
Procedure: A greenhouse trial was performed to evaluate the efficacy of ES43 dsRNA for controlling E. necator in grapes compared with commercial fungicides (Luna Experience/Pristina) and biofungicides (Regalia Biofungicide/Double Nickel).
Disease incidence was calculated based on the total number of leaves on the plant infected with powdery mildew, out of number of leaves present. Disease severity was calculated based on the percent (%) leaf surface infected overall for each plant. Area under the disease progress curve (AUDPC) was then calculated throughout the entire trial period (FIGS. 5 and 6).

[5] = tested on: E. necator; experiment: Leaf disc assay, dry inoculum (settling tower), decrease in disease severity / hyphal growth (Example 2); conditions: decrease in disease severity (hyphal growth) relative to untreated control, value ± SE; for % decrease =/− SE TP1: time point 1 (untreated control hyphal growth ≥50%); for % decrease =/− SE TP2: time point 2
[6] = tested on: GS1885, GS3336, GS1875, GS1879 transcripts; experiment: Gene specific qRT-PCR of GS1885, GS3336, GS1875, GS1879 transcripts in leaf discs (Example 3); format: in vivo, E. necator; conditions: six-days post inoculation, FIG. 4
Procedure: FIG. 4. Gene specific qRT-PCR analysis of GS1885, GS3336, GS1875, GS1879 transcripts at 6-dpi in leaf discs. The 2-ΔΔCT method was used to analyze the relative changes in gene expression. Gene expression was normalized to the untreated control. GS145 (a non-target dsRNA sequence) was also included as control. Asterisks denote significant differences compared to untreated control (UTC). Statistical comparisons between treatments were performed with ANOVA, followed by Welch's analysis.
as §1

Row | Molecule | leaf disease incidence ([1]; 6.25 g Ai/ha, 7-day and twice a week (3/4-day), 57 days after initial treatments) | leaf disease incidence ([1]; 50 g Ai/ha, compared to untreated control) | LSMeans difference (Dunnett's), disease severity ([2]; Run1, ES43 10 ppm vs negative control GS4 25 ppm) | LSMeans difference (Dunnett's), disease severity ([2]; Run1, ES43 25 ppm vs negative control GS4 25 ppm) | LSMeans difference (Dunnett's), disease severity ([2]; Run 2, ES43 10 ppm vs negative control GS4 25 ppm) | LSMeans difference (Dunnett's), disease severity ([2]; Run 2, ES43 25 ppm vs negative control GS4 25 ppm) | LSMeans difference (Dunnett's), disease severity ([2]; Run 3, ES43 10 ppm vs negative control GS145 25 ppm) | LSMeans difference (Dunnett's), disease severity ([2]; Run 3, ES43 25 ppm vs negative control GS145 25 ppm) | powdery mildew development on leaf disks ([2]; nine-dpi, 10 and 25 ppm, compared to untreated and non-dsRNA targets) | fungal growth determined by disease severity (FIG. 1) ([2]; three individual runs combined, 10 and 25 ppm, vs controls GS145 or GS4 (p<0.01)) | reduction of relative amounts of ES43 (Cyp51) transcripts ([3]; 6-dpi, compared to untreated control, FIG. 3) | gene silencing in E. necator by sprayed dsRNA ([3]; qRT-PCR, six-days post inoculation) | AUDPC based on disease severity vs. untreated control ([4]; FIG. 6) | reduction in disease incidence, twice per week vs once per week ([4]; twice per week applications at the same rate, numerically) | AUDPC based on disease severity, compared with commercial fungicide and biofungicides ([4]; weekly and twice-per-week spray interval, FIG. 6) | AUDPC based on disease incidence ([4]; weekly spray interval, all rates (6.25-100 g ai/ha), FIG. 5) | % decrease =/− SE TP1 [5] [%] | % decrease =/− SE TP2 [5] [%] | gene silencing in E. necator by sprayed dsRNA / gene expression levels vs untreated control [6]
1 | B1 | significantly decreased disease incidence | decreased incidence compared to untreated control | −61.5000 | −49.1667 | 10.0000 | −26.3750 | −24.0000 | −17.0625 | significant decrease of powdery mildew development | Significant decrease of fungal growth | up to 70% | Induced Gene Silencing | significantly decreased severity | greater reduction in disease incidence compared to once per week applications at the same rate | performed similarly to commercial fungicide and biofungicides | reduced powdery mildew AUDPC incidence with all rates similar to or better than the biofungicide standard | 41 ± 3 | 28 ± 5 | –
2 | B2 | – | – | – | – | – | – | – | – | – | – | – | – | – | – | – | – | 55 ± 4 | 41 ± 5 | Induced Gene Silencing
3 | B3 | – | – | – | – | – | – | – | – | – | – | – | – | – | – | – | – | 49 ± 5 | 41 ± 7 | Induced Gene Silencing
